Measurements taken from the nanobody polyreactivity screen of Harvey et al. (2022).

Assay: yeast display, Sf9 membrane polyspecificity reagent, FACS + sequencing; frameworks hold sequencing errors
Summary of the method: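 Polyreactivity labels are assigned by the sorting gate from which each nanobody was recovered. The gates were low and high (top ~1%), set on anti-HA fluorescence for expression and streptavidin fluorescence for reagent binding. Before sorting, galactose-induced (36–48 hours) yeast display cells were stained for 1 hour at 4 °C with 10% biotinylated, detergent-solubilized Sf9 membrane reagent.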

| Sequence | polyreactivity (PSR sort gate) |
| --- | --- |
| QVQLVESGGGLVQAGGSLRLTCAASVSIFPHYTMGWYRPAPGKERELVDAISNYGSSTYYADSVKGRFTISRDNAKNTVYLQMNSLKPEDSEVYYCNADDYGYSPGVNYWGQGTQVTVSS | low polyreactivity |
| QVQLVESGGGLVQAGGSLRLSCAASGNSFREYTMGWCRQAPGKERELVAGISGSGGRTYYADSVKGRFTISRDNAKNTVFLQMNSLKPEDTAVYYCNDRWYYGIGYNYWGQGTQVTVSS | high polyreactivity |
| QVQLVESGGGLVQAGGSLRLSCAASGSTFEDNAMGWYRQAPGKERELVAAITSGGNTYYADSVKGRFTISRDNAMNTVYLQMNSLKPDDTAVYYCNAVPFYYDFDYWGQGTQVTVSS | low polyreactivity |
| QVQLVESGGGLVQAGGSLRISCAASGRIFLFYAMGWYRQAPGKEREWVAAITYSGSTYYADSVKGRFTISRDNAKNTVYLQMNSLIPEDTAVYYCNARYRTYAGTYGYNYWGQGTQVTVSS | high polyreactivity |
| QVQLVESGGGLVQAGVSLRLSCAASGFTFYYYAMVRNRQAPGKERELVAAITGSGGGTYYADSVKGRFTISRDYAKNTVYLQKNSLKPEDTAVYYCNALYVSTSDFVYWGQGTQVTVSS | high polyreactivity |
| QVQLVESGGGLVQAGGSLRLSCAASGSTFYRNAMGWYRQAPGKEREFVAAISFRGGGTYADSVKGRFTISRDNAKNTVYLQMNSLKPEDTAVYYCAADHLSYRRRYEYWGLGTQVTVSS | low polyreactivity |
| QVQLVESGGGLVQAGGSLRLSCAATGIIFGTYAMGWYLQAPGTERELVAVISWRGGTYADSVKRRFTISRDNAKNTVYLQMNSLKPEDSAVYYCNARTWARLGSYWWIVDSWGQGTQVTVSS | high polyreactivity |
| QVQLVESGGGLVQAGGSLRLSCAAAGLIFSAYAMGWYRQAPGKEREVVAAISRSGGITYYADSVKGRFTISRDNAKNTVYLQMISLKPEDTAVYYCNARWYDPTLKFGYWGQGTQVTVSS | high polyreactivity |
| QVQLVESGGGLVQAGGSLRLSCAASGLTLYINAMGWYRQAPGKERELVAAIRTVGRTRYADSVKGRFTISRDNAKNTVYLQMNSLKPEDTAVYYCNARRYLRGYGYGYWGQGTQVTVSS | high polyreactivity |
| QVQLVESGGGLVQAGGSLRLSCAASGRTFFFYAMGWYRQAPGKERELVADITWSDGTTYYAESVKGRFTISRDNAKNTVYLQMNSLKPEDTAVYYCAKVRTGQSRSVGYDYWGQGTQVTVSS | low polyreactivity |
| QVQLVESGGGLVQAGGSLRLSCAASGSIFSYYAMGWYRQAPGKERELVAAISRGGSTYYADSVKGRFTISRDKAKNTVYLQMNSLKPEDTAVYYCNVDSFRYRHTGYGYTRYGYWGQGTQVTVSS | high polyreactivity |
| QVQLVESGGGLVQAGGSLRLSCAASGRIFPHYAMGWYRQAPGKERELVAAISRSGVSTYYADSVKGRFTISRDNAKNTVYLQMNSLKPEDTAVYYCNIVRYSFLYSVTYNYWGQGTQVTVSS | high polyreactivity |
| QVQLVESGGGLVQAGGSLRLSCAASGLTFSGNTMGWYRQAPGKVRELVAAISSDGSTNYADSVKGRFTISRDNAKNTVYLQMNSLKPEDTAVYYCNARVRYYFAFWRDYWGQGTQVTVSS | low polyreactivity |
| QVQLVDSGGGLVQAGGSLRLSCDASGLIFFFYAMRWYRQAPGKERELVAAISDEGVSTDYADSVKGRFTISRDNAKNTVYLQMNSLKPEDTAVYYCAAKTERVYPWFSFGYWGQGTQVTVSS | low polyreactivity |
| QVKLVESGGGLVQAGGSLRLSCAASGFTFGRYAMGWYRQAPGKERELVAAITRRGGSTYYADSVKGRFTISRDNAKNTVYLQMNSLKPEDTAVYYCNKVKQTRTDHDYWGQGTQVTVSS | high polyreactivity |
| QVQLVESGGGLVQAGGSLRLSCAASGLNFGVNAMGLYRQAPGKERELVAAISRSGGSTYYADSVKGRFTISRDNAKNSVYLQMNSLKPEDTAVYYCAAAAWDPKGSRYDYWGHGTQVTVSS | low polyreactivity |
| QVQLVESGGGLVQAGGSLRLSCAASGFTFAWYAMGWYRQAPGKERELVAAINWSGGRTYYADSVKGRFTISRDNAKNTVYLQMNSLKPEDTAVYYCAAPHLVKRSEFDYWGQGTQVTVSS | high polyreactivity |
| QVQLVESGGGLVQAGGSLRLSCAASGSTFDYYTMGWYRQAPGKERELVAAISSSGGSTYYADSVKGRFTISRDNAKNTVYLQMNSLKPEDTAVYYCAADPSPYGDEYDYWGQGTQVTVSS | low polyreactivity |
| QVQLVESGGGLVQAGGSLRLSCAASGRIFVKYAMGWYRQAPGKERELVAAIRSGGSTYYADSVKGRFTISRDNAKNTVYLQMNRLKPEDTAVYYCAAERNKHHYYTEPYDYWGQGTQVTVSS | low polyreactivity |
| QVQLVESGGGLVQAGGSLRLSCAASGRTFVRYAMGWYRQAPGKERELVAAISWSGATTYYADSVKGRFTISRDNAKNTVYLQMNSLKPEDTAVYYCAARFRRGITYEYWGQGTQVTVSS | high polyreactivity |
| QDQLEESGGGLVQAGGSLRLSFAASGSTFYGYARGWYRPAPGKERELVAAISVNGGSTYYADSVKGRFTISRDNAKNTVYLQMNSLKPDETAVYYCAAGSGWRFDYWGQGTQVTVSS | low polyreactivity |

| Sequence | polyreactivity (PSR sort gate) |
| --- | --- |
| QVQLVESGGGLVQAGGSLRLSCAASGFTFDDYDMGWYRQAPGKERELVAAISWSGGSTYYADSVKGRFTFSRDNAKNTVYLQMNSLKPEDSAVYYCAAERSYGGFDYWGQGTQVTVSS | low polyreactivity |
| QVQLVESGGGLVQAGGSLRLSCAASGRIFTGYAMGWYRQAPGKERELVAAITASGGNTYYADSVKGRFTISRDNAKNTVYLQMNSLKPEDTAVYYCAAGWYDQPDDYTSAYGVTKYGYWGQGTQVTVSS | low polyreactivity |
| QVQLVESGGGLVQAGGSLRLSCAASGSTFKYYAMGWYRQAPGKERELVARISSGGNTKYADSVKGRFTISRDNAMNTVYLQMNSLKPEDTAVYYCAAGYPGVGYAYDYWGQGTQVTVSS | high polyreactivity |
| QVQLVESGGGLGQAGGSLRLSCAASGSTFYKYAMGWYRQAPGKERELVASITWSGTSTYYADSVKGRFTISRDNQKNTVFLQMNSLKAEDTAVYYCAAPKLDDYDYWGQGTQVTVSS | low polyreactivity |
| QVQLVESGGGLVQAGGSLRLSCAASGFTFQGNVMGWYRQAPGKERELVAASTGGGGDTYSADSVKGRFTISRDNAKNTVYLQMNSLKPEDTAVYYCAAEVAPEWYWPWFFDYADGYWGQGTQVTLSS | high polyreactivity |
| QVQLVESGGGLVQAGGSLRLSCAASGLIFDANAMGWYRLAPVKERELVAAITGSGGRTYSADSVKGRFTISRDTANYTVYCQMNCLKPEATGVYYCAASSKRKVLYNYWGQGTQVTVSS | high polyreactivity |
| QVQLVESGGGLVQAGGSLRLSCAASGFIFRSYAMGWYRQAPGKERELVAAISRSGGSTYYADSVKGRFTISRDNAKNTVYLQMNSLKPEDTAVYYCATDGGRSTARGYGHWGQGTQVTVSS | high polyreactivity |
| QVQLVESGGGLVQAGGSLRISCAASGGTFTNYAMGWYRQAPGKERELVAAITDSGATTYYADSVKGRFTISRDNAKNTVYLQMNSLKPEDTAVYYCNAELDLYTDFDYWGQGTQVTVSS | low polyreactivity |
| QVQLVESGGGLVQAGGSLRLSCAASGRIFYTYAMGWYRQAPGKERELVAVISSGGSTNYADSVKGRFTISRDNAKNTVYLQMNSLKPEDTAVYYCAAYGTKWGRGFYITGYGYWGQGTQVTVSS | low polyreactivity |
| QVQLVESGGGLVQAGGSLRLSCAASGSIFDYNAMGWYRTAPGKERELVAAITGSGGSTYYADSVKGRFTISRDNAKNTVYLQMNSLTQEDTAVYYCAAPVDYRRYEYEYWGQGTQVTLSS | low polyreactivity |
| QVQLVESGGGLVQAGGSLRLSCAASGTIIYLNAMAWYRQAPGKERELVAAITSGGSTYYADSVKGRFTISRDNAKNTVYVQMNSLKPEDTAVYYCAAFVWSGWGHWFYFWGQGTQVTVSS | high polyreactivity |
| QVQLVESGGGLVQAGGSLRLSCAASGIIFRYNAMGWYRQAPGKERELVADITFSVGSTNYADSVKGRFTISRDNAKNTVYLQMNSLKPEDTAVYYCAAKFHSTYGNDDWGQGTQVTVSS | low polyreactivity |
| QVLLVESGGGLVQAGGSLRLSCAASGRILYHYAMGWYRQAPGKERELVAAITRGGGTNYADSVKGRFTISRDNAKNTVYLQMNSLKPEDTAVYYCNADRFIVTRSRRGDYWGQGTQVTVSS | low polyreactivity |
| QVQLVESGGDLVQAGGSLRLSCAASGGIFQKYVMGWYRQAPGKERELVARITSVGSTYYADSVKGRFTISRDNAKNTVYLQMNSLKPVDTAVYYCNAELYRRSQGYRFTAFDYWGQGTQVTVSS | low polyreactivity |
| QVQLVESGGGLVQAGGSLRLSFAASGIIFSHNVMGWYRQAPGKERELVAAITYSGGSTYYADSVKGRFTISRDNAKNTVYLLMNSLKPEDTAVYYCNALGVSRRDYDYWGQGTQVTVSS | low polyreactivity |
| QVQLVESGGGLVQAGGSLRLSCAASGSSLTRNDMGWHRLAPGKERELVAAISFSGSDTYYADSVKGRFTISRDNAKNTVYLQMNSLKPEDTAVYYCAAEYGGYSKYLFIGRYYWGQGTQVTVSS | low polyreactivity |
| QVHLVESGGGLDQAGGSLRLSCAASGRTFKRYAMGWYRQAPGKETELVAAISWSGTSTYYADSVKGRFTISRDNAKNTVYLQMNSLKPEDTALYFCNTPHRSSSVRSYGYWGQGTQVTVSS | high polyreactivity |
| QVQLVESGGGLVQAGGSLRLSCAASGRTFNRYAMGWYRQAPGKERELVAAISWRGDSTYYADSVKGRFTISRDNAKNTVYLQMNSLKPEDTAVYYCAARGNFWGQGTQVTVSS | high polyreactivity |
| QVQLVESGGGLVQAGGSLRLSCAASGSTFTSYAMGWYRQAPGKERELVAAISRRGTSTYYADSVKGRFTISRDNAKNTVYLQMNSLKPEDTAVYYCAADGYYWEYYYWGQVTQVTVSS | high polyreactivity |
| QVQLVESGGGLVQAGGSLRLRCAASGRIFPYYAMGWYRQSPGKERELVAAIRWSGGDTYYADSVKGRFTISRDNAKNTVYLQMNSLKPEDTAVYYCAAKAYSYSRWGYYGYYYWGQGTQVTVSS | high polyreactivity |
